{"source": "the supplement of paper PMC9170038", "test_system": "MS2 coat protein", "test": "apparent KD of MS2 coat protein; higher = weaker reporter binding", "details": "Eterna round: R107", "how_it_was_run": "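Apparent KD per design is the median of normalised cluster binding-curve fits. Designed RNA switches transcribed on-chip from Illumina sequencing clusters were titrated with SNAP-549-labelled MS2 coat protein in twofold steps from 0.7 or 1.5 nM to 3 µM, with 0.8–1.5 h down to 10–20 min per step. Buffer: 100 mM Tris-HCl pH 7.5, 80 mM KCl, 4 mM MgCl2, without or with constant ligand.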", "key": {"[1]": {"details": "input ligand: theophylline 20 uM"}, "[2]": {"details": "input ligand: tryptophan 2.4 mM"}, "[3]": {"details": "input ligand: theophylline 2 mM"}}, "data": [{"sequence": "UAAAACAUGAGGAUCACCCAUGUAAAAGAUACCAGAGUGAUGAUCCUCCCUUGGCAGCUUAACGCUGAUUGAUUACAAUCAGCGA [Mat - Same State Theophlline A - Mod of Eli - D21]", "values": [{"measurement": "apparent KD of MS2 coat protein", "setting": "input ligand: arginine 13.2 mM", "result": 75.4, "unit": "nM"}, {"measurement": "apparent KD of MS2 coat protein", "setting": "[1]", "result": 124, "unit": "nM"}, {"measurement": "apparent KD of MS2 coat protein", "setting": "[2]", "result": 53.3, "unit": "nM"}]}, {"sequence": "CGAUAGAUACGAAGGAGCGACAUGAGGAUCACCCAUGUCUACCACGUCGAAAGACGCUCAUGUCAGGUAGGUCGCGUAUUUAUCG [Astros-Eli-mod8]", "values": [{"measurement": "apparent KD of MS2 coat protein", "setting": "input ligand: arginine 13.2 mM", "result": 60.3, "unit": "nM"}, {"measurement": "apparent KD of MS2 coat protein", "setting": "input ligand: none", "result": 122, "unit": "nM"}, {"measurement": "apparent KD of MS2 coat protein", "setting": "[1]", "result": 124, "unit": "nM"}, {"measurement": "apparent KD of MS2 coat protein", "setting": "[3]", "result": 156, "unit": "nM"}, {"measurement": "apparent KD of MS2 coat protein", "setting": "[2]", "result": 101, "unit": "nM"}]}, {"sequence": "UGUAUGGACUGAAGGAGCGCCUCAAAAUAACUUGAGGAACACCCAAGUAAGGCGAAAGCCGGGCAGGUAGGUCGCAGUCCAUACU [ArgBX 3]", "values": [{"measurement": "apparent KD of MS2 coat protein", "setting": "input ligand: arginine 13.2 mM", "result": 31, "unit": "nM"}, {"measurement": "apparent KD of MS2 coat protein", "setting": "input ligand: none", "result": 24.6, "unit": "nM"}, {"measurement": "apparent KD of MS2 coat protein", "setting": "[1]", "result": 23, "unit": "nM"}, {"measurement": "apparent KD of MS2 coat protein", "setting": "[3]", "result": 46.1, "unit": "nM"}, {"measurement": "apparent KD of MS2 coat protein", "setting": "[2]", "result": 34.6, "unit": "nM"}]}, {"sequence": "AUUAAGGAUAUGUAGAAGGCGGAGAAGAGACGAGGACCGGUACGGCCGCCACUCGUGUUAGUUAACAUGAGGAUCACCCAUGUAA [#06 Tryptophan A Same State]", "values": [{"measurement": "apparent KD of MS2 coat protein", "setting": "input ligand: arginine 13.2 mM", "result": 14.3, "unit": "nM"}, {"measurement": "apparent KD of MS2 coat protein", "setting": "input ligand: none", "result": 60.7, "unit": "nM"}, {"measurement": "apparent KD of MS2 coat protein", "setting": "[1]", "result": 72.3, "unit": "nM"}, {"measurement": "apparent KD of MS2 coat protein", "setting": "[3]", "result": 112, "unit": "nM"}, {"measurement": "apparent KD of MS2 coat protein", "setting": "[2]", "result": 17.1, "unit": "nM"}]}, {"sequence": "CGUAUUACGAAAGUAGUACGUAGUUCGAGUCGAGGACCGGUACGGCCGCCACUCGGACAUGAGGAUCACCCAUGUAGCGAAAGCU [Tryptophan A 23]", "values": [{"measurement": "apparent KD of MS2 coat protein", "setting": "input ligand: arginine 13.2 mM", "result": 68.2, "unit": "nM"}, {"measurement": "apparent KD of MS2 coat protein", "setting": "input ligand: none", "result": 125, "unit": "nM"}, {"measurement": "apparent KD of MS2 coat protein", "setting": "[1]", "result": 156, "unit": "nM"}, {"measurement": "apparent KD of MS2 coat protein", "setting": "[3]", "result": 161, "unit": "nM"}, {"measurement": "apparent KD of MS2 coat protein", "setting": "[2]", "result": 72.4, "unit": "nM"}]}, {"sequence": "GGACUAACCAGAAGGAGCGGCACGCAGAAACUGCAAAAUCCUCCGCACGAGGAUCACCCGUGUCAGGUAGGUCGCUGGUUAGUCG [ArgBX 28]", "values": [{"measurement": "apparent KD of MS2 coat protein", "setting": "input ligand: arginine 13.2 mM", "result": 36.7, "unit": "nM"}, {"measurement": "apparent KD of MS2 coat protein", "setting": "input ligand: none", "result": 32.2, "unit": "nM"}, {"measurement": "apparent KD of MS2 coat protein", "setting": "[1]", "result": 39.8, "unit": "nM"}, {"measurement": "apparent KD of MS2 coat protein", "setting": "[3]", "result": 37.8, "unit": "nM"}, {"measurement": "apparent KD of MS2 coat protein", "setting": "[2]", "result": 33.8, "unit": "nM"}]}, {"sequence": "AUACAUGAGGAUCACCCAUGUGAUGGCCGGCGAGGACCGGUACGGCCGCCACUCGUGAUCCGUCCUGAAAGCAAAGCUCCCAGCA [Lalazare]", "values": [{"measurement": "apparent KD of MS2 coat protein", "setting": "input ligand: arginine 13.2 mM", "result": 25.1, "unit": "nM"}, {"measurement": "apparent KD of MS2 coat protein", "setting": "[1]", "result": 244, "unit": "nM"}, {"measurement": "apparent KD of MS2 coat protein", "setting": "[3]", "result": 178, "unit": "nM"}]}, {"sequence": "AGGCUUCGCAUAGGAAAACUAUGUGAAGCCCGAGGACCGGUACGGCCGCCACUCGUCCUCAACAUGAGGAUCACCCAUGUAAUAA [Mat - Exclusion - Trytophan A - D1]", "values": [{"measurement": "apparent KD of MS2 coat protein", "setting": "input ligand: arginine 13.2 mM", "result": 24.5, "unit": "nM"}, {"measurement": "apparent KD of MS2 coat protein", "setting": "input ligand: none", "result": 15.4, "unit": "nM"}, {"measurement": "apparent KD of MS2 coat protein", "setting": "[1]", "result": 41.6, "unit": "nM"}, {"measurement": "apparent KD of MS2 coat protein", "setting": "[3]", "result": 24.6, "unit": "nM"}, {"measurement": "apparent KD of MS2 coat protein", "setting": "[2]", "result": 28.8, "unit": "nM"}]}, {"sequence": "AGCAGCUGGUUUCUUUUCUUUACAGCUGCACGAGGACCGGUACGGCCGCCACUCGAGGACAUGAGGAUCACCCAUGUGCCGGUCG", "values": [{"measurement": "apparent KD of MS2 coat protein", "setting": "input ligand: arginine 13.2 mM", "result": 34.1, "unit": "nM"}, {"measurement": "apparent KD of MS2 coat protein", "setting": "input ligand: none", "result": 25.6, "unit": "nM"}, {"measurement": "apparent KD of MS2 coat protein", "setting": "[1]", "result": 40.6, "unit": "nM"}, {"measurement": "apparent KD of MS2 coat protein", "setting": "[3]", "result": 49.7, "unit": "nM"}, {"measurement": "apparent KD of MS2 coat protein", "setting": "[2]", "result": 22.7, "unit": "nM"}]}, {"sequence": "UAUAUAUAAACAUGAGGAUCACCCAUGUAACGAGGACCGGUACGGCCGCCACUCGGCCGGCAAGGGAGAGGACGGGAAACCGUCG [ETA NP+V+V2 #27]", "values": [{"measurement": "apparent KD of MS2 coat protein", "setting": "input ligand: arginine 13.2 mM", "result": 12.5, "unit": "nM"}, {"measurement": "apparent KD of MS2 coat protein", "setting": "input ligand: none", "result": 13.4, "unit": "nM"}, {"measurement": "apparent KD of MS2 coat protein", "setting": "[1]", "result": 19.3, "unit": "nM"}, {"measurement": "apparent KD of MS2 coat protein", "setting": "[3]", "result": 15.9, "unit": "nM"}, {"measurement": "apparent KD of MS2 coat protein", "setting": "[2]", "result": 17.1, "unit": "nM"}]}, {"sequence": "GCUAGUGGCAGAAGGAGCGACAUUUAUAGUGGUCGAUACAUGAGGAUCACCCAUGUACUAUGUCAGGUAGGUCGCUGCCACUAGC [EAB NP+V+V2 #5]", "values": [{"measurement": "apparent KD of MS2 coat protein", "setting": "input ligand: arginine 13.2 mM", "result": 31.6, "unit": "nM"}, {"measurement": "apparent KD of MS2 coat protein", "setting": "input ligand: none", "result": 35.1, "unit": "nM"}, {"measurement": "apparent KD of MS2 coat protein", "setting": "[1]", "result": 44.8, "unit": "nM"}, {"measurement": "apparent KD of MS2 coat protein", "setting": "[3]", "result": 34, "unit": "nM"}, {"measurement": "apparent KD of MS2 coat protein", "setting": "[2]", "result": 32.5, "unit": "nM"}]}, {"sequence": "UGACAUUGCUGCGAUACCAGACAUGAGGAUCACCCAUGUACCAAGGUAACCGAAAGGCAUGUCCCUUGGCAGCGCAGCAAUGUCU [MAT - Exclusion Theophlline B - Mod of Eli - D13]", "values": [{"measurement": "apparent KD of MS2 coat protein", "setting": "input ligand: arginine 13.2 mM", "result": 12.8, "unit": "nM"}, {"measurement": "apparent KD of MS2 coat protein", "setting": "[1]", "result": 21, "unit": "nM"}, {"measurement": "apparent KD of MS2 coat protein", "setting": "[2]", "result": 12.2, "unit": "nM"}]}, {"sequence": "GGUGGCGGGACUGAUACCAGCCACCACCGAUAGACCACAUGAGGAUCACCCAUGUUGGGUGGCCCUUGGCAGCAGUCUUGCGGCG [#1 Same State - Theophylline B Attempt #15 (HarryS)]", "values": [{"measurement": "apparent KD of MS2 coat protein", "setting": "input ligand: arginine 13.2 mM", "result": 85.5, "unit": "nM"}, {"measurement": "apparent KD of MS2 coat protein", "setting": "input ligand: none", "result": 527, "unit": "nM"}, {"measurement": "apparent KD of MS2 coat protein", "setting": "[1]", "result": 491, "unit": "nM"}, {"measurement": "apparent KD of MS2 coat protein", "setting": "[3]", "result": 81.5, "unit": "nM"}, {"measurement": "apparent KD of MS2 coat protein", "setting": "[2]", "result": 1290, "unit": "nM"}]}, {"sequence": "AUAUAUACAUGAGGAUCACCCAUGUUAUUACGAGGACCGGUACGGCCGCCACUCGAUAGAGUAGAAGUAAAUUGUAAUUCAUGUU [JR_ExcTryptoA_Sub016]", "values": [{"measurement": "apparent KD of MS2 coat protein", "setting": "input ligand: arginine 13.2 mM", "result": 13.8, "unit": "nM"}, {"measurement": "apparent KD of MS2 coat protein", "setting": "[1]", "result": 15.6, "unit": "nM"}, {"measurement": "apparent KD of MS2 coat protein", "setting": "[3]", "result": 11.6, "unit": "nM"}]}, {"sequence": "GGGUCGGGCGCGGCCGCCACUGCGGUGAUGUGACAUGAGGAUCACCCAUGUUGUCAUGUGGCACAUAGGACCGGGCGCCCGGCCC [#1 Exclusion - Tryptophan B Attempt #8 (HarryS)]", "values": [{"measurement": "apparent KD of MS2 coat protein", "setting": "input ligand: arginine 13.2 mM", "result": 34.7, "unit": "nM"}, {"measurement": "apparent KD of MS2 coat protein", "setting": "input ligand: none", "result": 29.1, "unit": "nM"}, {"measurement": "apparent KD of MS2 coat protein", "setting": "[1]", "result": 46.8, "unit": "nM"}, {"measurement": "apparent KD of MS2 coat protein", "setting": "[3]", "result": 34.7, "unit": "nM"}, {"measurement": "apparent KD of MS2 coat protein", "setting": "[2]", "result": 29.1, "unit": "nM"}]}, {"sequence": "UUAUAAGUACCGGUCCUCAGAUCCUCAUGACGAGGACCGGUACGGCCGCCACUCGAAACAUGAGGAUCACCCAUGUAAUAAUACC [Brourdmod12]", "values": [{"measurement": "apparent KD of MS2 coat protein", "setting": "input ligand: arginine 13.2 mM", "result": 36.6, "unit": "nM"}, {"measurement": "apparent KD of MS2 coat protein", "setting": "[1]", "result": 71.5, "unit": "nM"}, {"measurement": "apparent KD of MS2 coat protein", "setting": "[3]", "result": 54.2, "unit": "nM"}]}]}
